{"source": "patent US20240352438A1", "about": "“MEANS AND METHODS FOR DETOXIFYING OCHRATOXIN A” (DSM Austria GmbH, priority 2021, published 2024)", "experiment": "OTA detoxification activity assay (specific activity, fluorescence reduction ex/em 390/450 nm)", "type": "biochemical", "details": "SEQ ID NO: 1 = 100%", "procedure": "To determine the specific activity of recombinant target polypeptides produced e.g. as described in Example 2 above in units per liter (U/L), ochratoxin A (OTA) detoxification activity assays were performed. One unit is defined as the amount of enzyme necessary for degradation of 1 μmol or OTA in 1 min when using a starting OTA concentration of […].\nOTA detoxification activity assays were set up in a final volume of the reaction mixture of […], containing the recombinant enzyme preparation (preferably diluted to yield a volumetric activity of 1-10 mU/L), and 200 ng/mL OTA in 100 mM sodium phosphate buffer.\nSpecific activities were determined at pH 6.0 and pH 7.5. As soon as all components of the reaction mixture were mixed, OTA degradation was followed at 37° C. on a fluorescence spectrophotometer (BioTek Synergy H1 MFD Multimode microplate reader) by following the reduction in fluorescence at ex/em 390 nm/450 nm. For work performed at pH 6.0 and 7.5, a 100 mM sodium phosphate buffer was used.\nFor calculation of the specific activity, the initial linear part of the recorded fluorescence reduction curve was used. In addition to the fluorescence-based method described above, OTA degradation was also determined by using the HPLC-MS method as described by Dellafiora et al. 2020, Toxins 12, 258, essentially confirming the fluorescence-based results. Genes encoding either of the indicated SEQ ID NOs are expressed as described herein and the specific activities for the obtained polypeptide preparation are exemplarily shown in Table 8. Analogously, enzymatic activities using either ochratoxin B, C or TA as substrate or can be found."}
{"molecule": "178 (protein, exemplary polypeptide) MTTRTRILTAFLSLLAANACAADAAPAAPHTVVLRAARMFDGASGKLVDHPQLTIVGNKIVRIAQGDKAEVPAGAEVVDLGDATLLPGFIDAHVHLSGQSSDNWYGDFFDNMMRFPAEQALYGAYYARITLEAGFTSVRDVGSTDWVALGLRNAIDAGKVPGPRMLVSNYAVGSTGGHADQDPIPPHKLPLAGPLQGVCNGPEECRAAVRYQIKYGANVIKFMPSGGVLSLSDPVDAPELSQDEMNAVIGESHAWGRKVAAHAHGDKAAKMAVAAGVDSIEHGSFIEDDTLRAMKAKNVYLVPTISAAAHVEEKIGTYPPVIAEKGRAAAAHLRQTFRHAVQIGVPIALGTDAAVGAHGSNAREFRYMVENGLTPAQALLAGTANAARLLGTFDRVGTLEAGKLADVVAVPGNPIADITVTERPLFVMKDGVVVRRDAVR", "values": [{"measurement": "Specific OTA detoxification activities in % compared to the enzyme of SEQ ID NO: 1, pH 6.0", "value": 85, "unit": "%"}, {"measurement": "Specific OTA detoxification activities in % compared to the enzyme of SEQ ID NO: 1, pH 7.5", "value": 88, "unit": "%"}]}
{"molecule": "191 (protein, exemplary polypeptide) MTTRTRILTAFLSLLAANACAADAAPAAPHTVVLRAARMFDGASGKLVDHPQLTIVGNKIVRIAQGDKAEVPAGAEVVDLGDATLLPGFIDAHVHLSGQSSDNWYGDFFDNMMRFPAEQALYGAYYARITLEAGFTSVRDVGSTDWVALGLRNAIDAGKVPGPRMLVSNYAVGSTGGHADQDPIPPHKLPLAGPLQGVCNGPEECRAAVRYQIKYGANVIKFMPSGGVLSLSDPVDAPELSQDEMNAVIGESHAWGRKVAAHAHGDKAAKMAVAAGVDSIEHGSFIEDDTLRAMKAKNVYLVPTISAIAHVEEKIGTFPPVIAEKGRAAAAHLRQTFRHAVQIGVPIALGTDATVGAHGSNAREFRYMVENGLTPAQALLAGTANAARLLGTFDRVGTLEAGKLADVVAVPGNPIADITVTERPLFVMKDGVVVRRDAVR", "values": [{"measurement": "Specific OTA detoxification activities in % compared to the enzyme of SEQ ID NO: 1, pH 6.0", "value": 21, "unit": "%"}, {"measurement": "Specific OTA detoxification activities in % compared to the enzyme of SEQ ID NO: 1, pH 7.5", "value": 28, "unit": "%"}]}
{"molecule": "199 (protein, exemplary polypeptide) MTTRTRILTAFLSLLAANACAADAAPAAPHTVVLRAARMFDGASGKLVDHPQLTIVGNKIVRIAQGDKAEVPAGAEVVDLGDATLLPGFIDAHVHLSGQSSDNLYGDFFDNMMRFPAEQALYGAYYARITLEAGFTSVRDVGSTDWVALGLRNAIDAGKVPGPRMLVSNYAVGSTGGHADQDPIPPHKLPLAGPLQGVCNGPEECRAAVRYQIKYGANVIKFMPSGGVLSLSDPVDAPELSQDEMNAVIGESHAWGRKVAAHAHGDKAAKMAVAAGVDSIEHGSFIEDDTLRAMKAKNVYLVPTISAIAHVEEKIGTFPPVIAEKGRAAAAHLRQTFRHAVQIGVPIALGTDAGVGAHGSNAREFRYMVENGLTPAQALLAGTANAARLLGTFDRVGTLEAGKLADVVAVPGNPIADITVTERPLFVMKDGVVVRRDAVR", "values": [{"measurement": "Specific OTA detoxification activities in % compared to the enzyme of SEQ ID NO: 1, pH 6.0", "value": 9, "unit": "%"}, {"measurement": "Specific OTA detoxification activities in % compared to the enzyme of SEQ ID NO: 1, pH 7.5", "value": 34, "unit": "%"}]}
{"molecule": "212 (protein, exemplary polypeptide) MTTRTRILTAFLSLLAANACAADAAPAAPHTVVLRAARMFDGASGKLVDPPQLTIVGNKIVRIAQGDKAEVPAGAEVVDLGDATLLPGFIDAHVHLSGQSSDNWYGDFFDNMMRFPAEQALYGAYYARITLEAGFTSVRDVGSTDWVALGLRNAIDAGKVPGPRMLVSNYAVGSTGGHADQDPIPPHKLPLAGPLQGVCNGPEECRAAVRYQIKYGANVIKFMPSGGVLSLSDPVDAPELSQDEMNAVIGESHAWGRKVAAHAHGDKAAKMAVAAGVDSIEHGSFIEDDTLRAMKAKNVYLVPTISAIAHVEEKIGTFPPVIAEKGRAAAAHLRQTFRHAVQIGVPIALGTDAGVGAHGSNAREFRYMVENGLTPAQALLAGTANAARLLGTFDRVGTLEAGKLADVVAVPGNPIADITVTERPLFVMKDGVVVRRDAVR", "values": [{"measurement": "Specific OTA detoxification activities in % compared to the enzyme of SEQ ID NO: 1, pH 6.0", "value": 46, "unit": "%"}, {"measurement": "Specific OTA detoxification activities in % compared to the enzyme of SEQ ID NO: 1, pH 7.5", "value": 17, "unit": "%"}]}
{"molecule": "215 (protein, exemplary polypeptide) MTTRTRILTAFLSLLAANACAADAAPAAPHTVVLRAARMFDGASGKLVDHPQLTIVGNKIVRIAQGDKAEVPAGAEVVDLGDATLLPGFIDAHVHLSGQSSDLWYGDFFDNMMRFPAEQALYGAYYARITLEAGFTSVRDVGSTDWVALGLRNAIDAGKVPGPRMLVSNYAVGSTGGHADQDPIPPHKLPLAGPLQGVCNGPEECRAAVRYQIKYGANVIKFMPSGGVLSLSDPVDAPELSQDEMNAVIGESHAWGRKVAAHAHGDKAAKMAVAAGVDSIEHGSFIEDDTLRAMKAKNVYLVPTISAIAHVEEKIGTFPPVIAEKGRAAAAHLRQTFRHAVQIGVPIALGTDAGVGAHGSNAREFRYMVENGLTPAQALLAGTANAARLLGTFDRVGTLEAGKLADVVAVPGNPIADITVTERPLFVMKDGVVVRRDAVR", "values": [{"measurement": "Specific OTA detoxification activities in % compared to the enzyme of SEQ ID NO: 1, pH 6.0", "value": 27, "unit": "%"}, {"measurement": "Specific OTA detoxification activities in % compared to the enzyme of SEQ ID NO: 1, pH 7.5", "value": 20, "unit": "%"}]}
{"molecule": "222 (protein, exemplary polypeptide) MTTRTRILTAFLSLLAANACAADAAPAAPHTVVLRAARMFDGASGKLVDHPQLTIVGNKIVRIAQGDKAEVPAGAEVVDLGDATLLPGFIDAHVHLSGQSSDNWYGDFFDNMMRFPAEQALYGAYYARITLEAGFTSVRDVGSTDWVALGLRNAIDAGKVPGPRMLVSNYAVGSTGGHADQDPIPPHDLPLAGPLQGVCNGPEECRAAVRYQIKYGANVIKFMPSGGVLSLSDPVDAPELSQDEMNAVIGESHAWGRKVAAHAHGDKAAKMAVAAGVDSIEHGSFIEDDTLRAMKAKNVYLVPTISAIAHVEEKIGTFPPVIAEKGRAAAAHLRQTFRHAVQIGVPIALGTDAGVGAHGSNAREFRYMVENGLTPAQALLAGTANAARLLGTFDRVGTLEAGKLADVVAVPGNPIADITVTERPLFVMKDGVVVRRDAVR", "values": [{"measurement": "Specific OTA detoxification activities in % compared to the enzyme of SEQ ID NO: 1, pH 6.0", "value": 8, "unit": "%"}, {"measurement": "Specific OTA detoxification activities in % compared to the enzyme of SEQ ID NO: 1, pH 7.5", "value": 20, "unit": "%"}]}
{"molecule": "205 (protein, exemplary polypeptide) MTTRTRILTAFLSLLAANACAADAAPAAPHTVVLRAARMFDGASGKLVDHPQLTIVGNKIVRIAQGDKAEVPAGAEVVDLGDATLLPGFIDAHVHLSGQSSDNWYGDFFDNMMRFPAEQALYGAYYARITLEAGFTSVRDVGSTDWVALGLRNAIDAGKVPGPRMLVSNYAVGSTGGHADQDPIPPHKLPLAGPLQGVCNGPEECRAAVRYQIKYGANVIKFMPSGGVLSLSDPVDAPELSQDEMNAVIGESHAWGRKVAAHAHGDKAAKMAVAAGVDSIEHGSFIEDDTLRAMKAKNVYLVPTISAIAHVEEKIGTFPPVSAEKGRAAAAHLRQTFRHAVQIGVPIALGTDAGVGAHGSNAREFRYMVENGLTPAQALLAGTANAARLLGTFDRVGTLEAGKLADVVAVPGNPIADITVTERPLFVMKDGVVVRRDAVR", "values": [{"measurement": "Specific OTA detoxification activities in % compared to the enzyme of SEQ ID NO: 1, pH 6.0", "value": 52, "unit": "%"}, {"measurement": "Specific OTA detoxification activities in % compared to the enzyme of SEQ ID NO: 1, pH 7.5", "value": 24, "unit": "%"}]}
{"molecule": "185 (protein, exemplary polypeptide) MTTRTRILTAFLSLLAANACAADAAPAAPHTVVLRAARMFDGASGKLVDHPQLTIVGNKIVRIAQGDKAEVPAGAEVVDLGDATLLPGFIDAHVHLSGQSSDNWYGDFFDNMMRFPAEQALYGAYYARITLEAGFTSVRDVGSTDWVALGLRNAIDAGKVPGPRMLVSNYAVGSTGGHADQDPIPPHKLPLAGPLQGVCNGPEECRAAVRYQIKYGANVIKFMPSGGVLSLSDPVDAPELSQDEMNAVIGESHAWGRKVAAHAHGDKAAKMAVAAGVDSIEHGSFIEDDTLRAMKAKNVYLVPTISAIAHVEEKIGTFPPVIAEKGRAAVAHLRQTFRHAVQIGVPIALGTDAGVGAHGSNAREFRYMVENGLTPAQALLAGTANAARLLGTFDRVGTLEAGKLADVVAVPGNPIADITVTERPLFVMKDGVVVRRDAVR", "values": [{"measurement": "Specific OTA detoxification activities in % compared to the enzyme of SEQ ID NO: 1, pH 6.0", "value": 32, "unit": "%"}, {"measurement": "Specific OTA detoxification activities in % compared to the enzyme of SEQ ID NO: 1, pH 7.5", "value": 18, "unit": "%"}]}
{"molecule": "204 (protein, exemplary polypeptide) MTTRTRILTAFLSLLAANACAADAAPAAPHTVVLRAARMFDGASGKLVDHPQLTIVGNKIVRIAQGDKAEVPAGAEVVDLGDATLLPGFIDAHVHLSGQSSDNWYGDFFDNMMRFPAEQALYGAYYARITLEAGFTSVRDVGSTDWVALGLRNAIDAGKVPGPRMLVSNYAVGSTGGHADQDPIPPHKLPLAGPLQGVCNGPEECRAAVRYQIKYGANVIKFMPSGGVLSLSDPVDAPELSQDEMNAVIGESHAWGRKVAAHAHGDKAAKMAVAAGVDSIEHGSFIEDDTLRAMKAKNVYLVPTISAIAHVEEKIGTFPPVQAEKGRAAAAHLRQTFRHAVQIGVPIALGTDAGVGAHGSNAREFRYMVENGLTPAQALLAGTANAARLLGTFDRVGTLEAGKLADVVAVPGNPIADITVTERPLFVMKDGVVVRRDAVR", "values": [{"measurement": "Specific OTA detoxification activities in % compared to the enzyme of SEQ ID NO: 1, pH 6.0", "value": 41, "unit": "%"}, {"measurement": "Specific OTA detoxification activities in % compared to the enzyme of SEQ ID NO: 1, pH 7.5", "value": 24, "unit": "%"}]}
{"molecule": "223 (protein, exemplary polypeptide) MTTRTRILTAFLSLLAANACAADAAPAAPHTVVLRAARMFDGASGKLVDHPQLTIVGNKIVRIAQGDKAEVPAGAEVVDLGDATLLPGFIDAHVHLSGQSSDNWYGDFFDNMMRFPAEQALYGAYYARITLEAGFTSVRDVGSTDWVALGLRNAIDAGKVPGPRMLVSNYAVGSTGGHADQDPIPPHELPLAGPLQGVCNGPEECRAAVRYQIKYGANVIKFMPSGGVLSLSDPVDAPELSQDEMNAVIGESHAWGRKVAAHAHGDKAAKMAVAAGVDSIEHGSFIEDDTLRAMKAKNVYLVPTISAIAHVEEKIGTFPPVIAEKGRAAAAHLRQTFRHAVQIGVPIALGTDAGVGAHGSNAREFRYMVENGLTPAQALLAGTANAARLLGTFDRVGTLEAGKLADVVAVPGNPIADITVTERPLFVMKDGVVVRRDAVR", "values": [{"measurement": "Specific OTA detoxification activities in % compared to the enzyme of SEQ ID NO: 1, pH 6.0", "value": 14, "unit": "%"}, {"measurement": "Specific OTA detoxification activities in % compared to the enzyme of SEQ ID NO: 1, pH 7.5", "value": 16, "unit": "%"}]}
